{
  "source": "paper PMC2185574",
  "about": "(The Journal of Cell Biology, 2000)",
  "binders": {"B1": {"name": "prenylated His6-tagged Rab3A (natural protein)", "chain": "MASATDSRYGQKESSDQNFDYMFKILIIGNSSVGKTSFLFRYADDSFTPAFVSTVGIDFKVKTIYRNDKRIKLQIWDTAGQERYRTITTAYYRGAMGFILMYDITNEESFNAVQDWSTQIKTYSWDNAQVLLVGNKCDMEDERVVSSERGRQLADHLGFEFFEASAKDNINVKQTFERLVDVICEKMSESLDTADPAVTGAKQGPQLSDQQVPPHQDCAC", "modifications": "prenylated (residues not stated)"}},
  "molecular_target": "T1, 6xHis-tagged Mrs6p, wild-type (S. cerevisiae, UniProt P32864 1-603)",
  "T1 sequence": "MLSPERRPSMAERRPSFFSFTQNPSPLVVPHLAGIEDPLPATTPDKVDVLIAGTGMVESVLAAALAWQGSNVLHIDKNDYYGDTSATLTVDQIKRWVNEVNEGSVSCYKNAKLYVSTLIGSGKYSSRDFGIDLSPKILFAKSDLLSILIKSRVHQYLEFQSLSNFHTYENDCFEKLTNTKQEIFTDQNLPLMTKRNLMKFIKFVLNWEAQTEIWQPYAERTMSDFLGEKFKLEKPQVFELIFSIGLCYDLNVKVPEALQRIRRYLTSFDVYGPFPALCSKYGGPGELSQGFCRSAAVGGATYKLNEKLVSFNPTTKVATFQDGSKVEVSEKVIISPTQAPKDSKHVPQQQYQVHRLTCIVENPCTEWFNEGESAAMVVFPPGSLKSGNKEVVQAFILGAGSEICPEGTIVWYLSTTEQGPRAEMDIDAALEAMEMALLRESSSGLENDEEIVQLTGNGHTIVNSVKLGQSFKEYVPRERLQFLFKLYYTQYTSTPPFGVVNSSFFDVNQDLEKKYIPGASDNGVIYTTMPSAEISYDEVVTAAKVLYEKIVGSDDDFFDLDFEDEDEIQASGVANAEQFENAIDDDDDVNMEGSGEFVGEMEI",
  "assay": "other fluorescence titration",
  "data": [
    {"binder": "B1", "values": [
      {"measurement": "Kd", "value": 0.32, "unit": "µM"}
    ]}
  ]
}
